The source of these data is PMC11661448, “Molecular basis for plasma membrane recruitment of PI4KA by EFR3” (Science Advances, 2024).

The Kd is the equilibrium constant for the complex coming apart.

Holding throughout (conditions): both partners purified
For assay [1], the target named is T1, PI4KA/TTC7B/FAM126A ΔC (PI4KA complex) (human, UniProt P42356 1-2102; Q86TV6 1-843; Q9BYI3 1-308).
T1 construct: phosphatidylinositol 4 kinase III alpha (PI4KA), human, full length; TTC7B, human, full length; FAM126A, human, residues 1 to 308 (lacks the disordered C terminus); Dimer of heterotrimers; A His-Strep tag was cleaved with TEV protease; also called PI4KA-TTC7B-FAM126A (1 to 308); PI4KA-TTC7B-FAM126A complex; source: Sf9 (MultiBac baculovirus), co-expressed, purified (HisTrap, StrepTrap, TEV …)
Put plainly: SEC; Superose 6 Increase in 150 mM NaCl, 20 mM imidazole pH 7.0, 5% glycerol, 0.5 mM TCEP; 7.19 uM PI4KA complex with 61.8 uM EFR3A, or 6.78 uM TTC7B-FAM126A with 102.3 uM EFR3A; peaks checked by SDS-PAGE. A general note: Size exclusion chromatography separates by hydrodynamic size, large species first.

For assay [2], the target named is T2, TTC7B-FAM126A (1 to 308) (human, UniProt Q86TV6 1-843; Q9BYI3 1-308).
T2 construct: N-terminal His10-2x Strep-TEV tag from the pOPT vector, cleaved with TEV; also called TTC7B-FAM126A ΔC; TTC7B-FAM126A dimer; source: E. coli BL21 DE3 C41, co-expressed, purified (HisTrap, StrepTrap, TEV cleavage, SEC)
Put plainly: BLI; His-EFR3A (wild type or mutant) at 200 nM loaded on anti-penta-His tips, dipped in TTC7B-FAM126A (wild type or mutant) at 500 nM; 25°C, 20 mM HEPES pH 7.5, 150 mM NaCl, 0.01% BSA, 0.002% Tween-20; maximum response compared with wild type. (BLI is a label-free optical method that tracks binding on a fibre tip over time.)

Assay [3] addresses T2, TTC7B-FAM126A (1 to 308). Nature of the assay: BLI; His-MBP-EFR3A (721 to 791) at 200 nM loaded on anti-penta-His tips, TTC7B-FAM126A titrated; His-MBP responses subtracted; 25°C, 20 mM HEPES pH 7.5, 150 mM NaCl, 0.01% BSA, 0.002% Tween-20; KD by one site specific nonlinear regression of the response against concentration.

Substitutions are numbered along the chain they refer to.

B1: EFR3A (721 to 791) (domain or fragment, human, UniProt Q14156 721-791, looked up)
chain: SNTEEITFEALKKAIDTSGMEEQEKEKRRLVIEKFQKAPFEEIAAQCESKANLLHDRLAQILELTIRPPPS
notes: EFR3A, human, residues 721 to 791; No tag cleavage is described for this protein; it was eluted from StrepTrap with desthiobiotin; also called EFR3A C terminus; EFR3A C terminal fragment; source: E. coli BL21 DE3 C41, purified (HisTrap, StrepTrap, SEC); not shown: His10, N-terminal, kept
B1: the binding result in assay [1] is “binds”.

B2: EFR3A (721 to 791) K732E (domain or fragment, human, UniProt Q14156 721-791, looked up)
chain: B1 chain with K12E
notes: EFR3A, human, residues 721 to 791; source: E. coli BL21 DE3 C41, purified (HisTrap, StrepTrap, SEC); not shown: His10, N-terminal, kept
On to B2, for which, in the assay with TTC7B-FAM126A (1 to 308) [2], the binding result was “binds”.

B3: EFR3A (721 to 791) A734R (domain or fragment, human, UniProt Q14156 721-791, looked up)
chain: B1 chain with A14R
notes: as for B2
With B3, the binding result with TTC7B-FAM126A (1 to 308) [2] is recorded as “binds”.

B4: His-MBP-EFR3A (721 to 791) (domain or fragment, human, UniProt Q14156 721-791, looked up)
chain: B1 chain
notes: source: E. coli BL21 DE3 C41, purified (HisTrap, StrepTrap, SEC); not shown: MBP, N-terminal, kept; His10, N-terminal, kept
Consider B4, for which the Kd with TTC7B-FAM126A (1 to 308) [3] was ~0.0235 µM.

B5: EFR3A (721 to 791) F728A (domain or fragment, human, UniProt Q14156 721-791, looked up)
chain: B1 chain with F8A
notes: as for B2
Regarding B5, in the assay with TTC7B-FAM126A (1 to 308) [2], the binding result is reported as “binds”.

B6: EFR3A (721 to 791) I763A (domain or fragment, human, UniProt Q14156 721-791, looked up)
chain: B1 chain with I43A
notes: as for B2
For B6, the binding result with TTC7B-FAM126A (1 to 308) [2] was “binds”.
